Test results from PMC5783997.

Legend:
[1] = biological target: PucD LH2 α-apoprotein (α-polypeptide encoded by the pucBAd gene pair) (Rhodopseudomonas palustris (endogenous in the ΔpucBAabce mutant; genome sequence of strain CGA009)); test: crystal structure; PucD LH2 in 20 mM Tris-Cl pH 8.0, 0.15% DM, 3.0% HPT, PEG 600, 50 mM CaCl2, 16 °C; data to 4.71 Å; molecular replacement with the nonameric Rps. acidophila 10050 LH2, jelly-body refinement
[2] = biological target: PucD LH2 β-apoprotein (β-polypeptide encoded by the pucBAd gene pair) (Rhodopseudomonas palustris (endogenous in the ΔpucBAabce mutant; genome sequence of strain CGA009)); test: as above

Row | stoichiometry N [1] | stoichiometry N [2] | Substance
1 | 9 | – | PucD LH2 α-apoprotein (α-polypeptide encoded by the pucBAd gene pair) (natural protein)
2 | – | 9 | PucD LH2 β-apoprotein (β-polypeptide encoded by the pucBAd gene pair) (natural protein)
